The results in this text go back to publication PMC4267639, “The Mtr4 ratchet helix and arch domain both function to promote RNA unwinding”.

Changes are numbered by the printed parent chain. Numbers in names are those of the source.

The target of data set [1] is T1, Mtr4 E1033A-archless E1033A (Saccharomyces cerevisiae) (UniProt P47047).
T1 sequence: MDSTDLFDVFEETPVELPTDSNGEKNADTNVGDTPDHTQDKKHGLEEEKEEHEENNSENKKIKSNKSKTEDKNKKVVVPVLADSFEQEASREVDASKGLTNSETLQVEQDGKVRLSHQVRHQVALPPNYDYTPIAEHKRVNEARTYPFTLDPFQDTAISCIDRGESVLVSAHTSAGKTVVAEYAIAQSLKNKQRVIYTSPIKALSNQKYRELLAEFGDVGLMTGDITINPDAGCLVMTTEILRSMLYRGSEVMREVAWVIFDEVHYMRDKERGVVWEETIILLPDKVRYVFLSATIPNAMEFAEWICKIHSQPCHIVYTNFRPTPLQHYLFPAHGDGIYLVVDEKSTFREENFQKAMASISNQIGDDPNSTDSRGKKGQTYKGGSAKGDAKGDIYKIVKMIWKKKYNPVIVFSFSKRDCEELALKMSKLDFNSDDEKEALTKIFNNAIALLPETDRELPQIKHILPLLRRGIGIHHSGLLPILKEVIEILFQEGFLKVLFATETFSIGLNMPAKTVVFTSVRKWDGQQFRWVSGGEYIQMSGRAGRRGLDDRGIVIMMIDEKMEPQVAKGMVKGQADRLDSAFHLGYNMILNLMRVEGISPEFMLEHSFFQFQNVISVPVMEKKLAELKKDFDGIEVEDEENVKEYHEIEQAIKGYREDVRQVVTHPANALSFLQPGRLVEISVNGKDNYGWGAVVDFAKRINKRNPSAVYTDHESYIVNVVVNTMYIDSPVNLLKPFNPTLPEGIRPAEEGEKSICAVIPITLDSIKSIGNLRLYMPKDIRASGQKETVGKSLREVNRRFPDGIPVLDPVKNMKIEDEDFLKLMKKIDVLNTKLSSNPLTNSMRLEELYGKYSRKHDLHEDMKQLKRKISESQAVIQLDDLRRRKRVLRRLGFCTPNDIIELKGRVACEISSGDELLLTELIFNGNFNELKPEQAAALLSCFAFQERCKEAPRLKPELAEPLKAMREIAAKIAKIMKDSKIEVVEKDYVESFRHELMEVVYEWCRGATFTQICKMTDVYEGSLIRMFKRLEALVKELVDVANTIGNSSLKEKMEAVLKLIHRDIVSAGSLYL
Briefly: fluorescence anisotropy. The settings on record: FA: 40 mM MOPS pH 6.5, 100 mM NaCl, 0.5 mM MgCl2, 5% glycerol, 0.01% NP-40 substitute, 2 mM DTT, 60 nM RNA, 30 C; EMSA conditions not in material. For orientation: Fluorescence polarisation rises when a labelled molecule tumbles more slowly, as on binding a larger partner.

Data set [2] concerns the target T2, Mtr4 R1030A-archless R1030A (Saccharomyces cerevisiae) (UniProt P47047).
T2 sequence: T1 sequence with R1030A, A1033E
The data set can be described thus: fluorescence anisotropy. To be noted: FA: 40 mM MOPS pH 6.5, 100 mM NaCl, 0.5 mM MgCl2, 5% glycerol, 0.01% NP-40 substitute, 2 mM DTT, 60 nM RNA, 30 C; EMSA conditions not in material.

For data set [3], the target named is T3, Mtr4 archless (Saccharomyces cerevisiae) (UniProt P47047).
T3 sequence: T1 sequence with A1033E
Briefly: fluorescence anisotropy. To be noted: FA: 40 mM MOPS pH 6.5, 100 mM NaCl, 0.5 mM MgCl2, 5% glycerol, 0.01% NP-40 substitute, 2 mM DTT, 60 nM RNA, 30 C; EMSA conditions not in material.

The next data set concerns the target T4, Mtr4 R1030A (Saccharomyces cerevisiae, UniProt P47047 1-1073, R1030A).
T4 sequence: T1 sequence with R1030A, A1033E
Briefly: fluorescence anisotropy; 0.5 mM MgCl2; FA: 40 mM MOPS pH 6.5, 100 mM NaCl, 0.5 mM MgCl2, 5% glycerol, 0.01% NP-40 substitute, 2 mM DTT, 60 nM RNA, 30 C; EMSA conditions not in material. The settings on record: protein: recombinant; tags: vector pET151/D-TOPO; label: 3' fluorescein on R16; 3' overhang 6 nt (UAAAAA) on R22A, other end blunt; 16 bp.

The target in a further data set is T5, Mtr4 WT (Saccharomyces cerevisiae, UniProt P47047).
T5 sequence: T1 sequence with A1033E
The data set is described as above. The settings on record: protein: recombinant; tags: vector pET151/D-TOPO; label: 3' fluorescein on R16; 3' overhang 6 nt (UAAAAA) on R22A, other end blunt; 16 bp.

The next data set deals with T6, Mtr4 E1033A (Saccharomyces cerevisiae, UniProt P47047 1-1073, E1033A).
T6 sequence: T1 sequence
The data set is described as above. The settings on record: protein: recombinant; tags: vector pET151/D-TOPO; label: 3' fluorescein on R16; 3' overhang 6 nt (UAAAAA) on R22A, other end blunt; 16 bp.

By Kd is commonly meant the free concentration of one partner at which half of the binding sites on the other are occupied at equilibrium, for simple one-to-one binding. On to “GCGUCUUUACGGUGCUUAAAAA / AGCACCGUAAAGACGC [poly(A) substrate R22A/R16, fluorescein]”, for which the Kd in data set [1] is 4.8 µM; in data set [2], > 10 µM; in data set [3] it was 4.5 µM.

B1: poly(A) substrate R22A/R16, fluorescein (dsRNA)
RNA 1: GCGUCUUUACGGUGCUUAAAAA
RNA 2: AGCACCGUAAAGACGC
On to B1, for which the values for the dissociation constant (Kd) with Mtr4 R1030A, with Mtr4 WT and with Mtr4 E1033A were 2.6 ± 1 µM, 2.8 ± 0.9 µM and 2 ± 0.6 µM, respectively.
